Experimental data taken from the Human Domainome abundance scans (Beltran et al. 2025).

B1: 3'-5' exoribonuclease 1, residues 65 to 114; numbered along this chain, Q8IV48 (parent)
chain: VYKEIAITNGCINRMSKEELRAKLSEFKLETRGVKDVLKKRLKNYYKKQK

Variants of: B1
Assay: abundance fitness (aPCA) (normalised: wild type 0, dead -1); higher = more abundant; growth selection in yeast, the domain comes from the species named
Conditions: Homo sapiens

Abundance fitness of substitutions, site by site:
F27: M 0.026 | C 0.065 | N 0.007 | H 0.062 | E -0.036 | P -0.914 | I 0.003 | D -0.652 | K -0.065 | G -0.723 | W -0.453 | A -0.065 | Y -0.019 | Q -0.166 | S -0.307 | T -0.483 | L 0.148
L20: D -1 | R -0.997 | A -0.912 | V -0.568 | S -0.479 | K -0.956 | C -0.879 | Q -0.892 | E -0.78 | P -0.961 | W -0.835 | M -0.282 | T -0.913 | G -0.942 | F -0.512
L24: I -0.88 | E -0.986 | T -0.832 | Q -0.927 | M -0.507 | G -0.97 | A -0.704 | R -0.96 | W -0.902 | K -0.973 | N -1.03 | C -0.052 | V -0.813 | P -0.984 | Y -0.896 | H -0.772 | S -0.488 | D -1.05
K23: S -0.318 | E -0.56 | V -0.182 | L -0.176 | R -0.101 | Q -0.11 | T -0.172 | W -0.234 | H -0.154 | G -0.861 | C -0.158 | P -0.941
E26: K -0.273 | C -0.31 | Y -0.153 | W -0.406 | T -0.189 | L -0.22 | V -0.362 | P -0.964 | S -0.185 | D -0.119 | I -0.432 | R -0.472 | M -0.267 | F -0.169 | H -0.267 | N -0.273 | Q -0.102 | G -0.24 | A -0.202
R21: C -0.474 | Q -0.221 | N -0.787 | W -0.833 | V -0.203 | P -0.697 | G -0.804 | H -0.644 | F -0.688 | M -0.449 | Y -0.773 | E -0.841 | D -0.844 | S -0.518 | I -0.226 | T -0.473 | L -0.528
K28: C -0.127 | A -0.141
E18: W -0.131 | Y -0.179 | F -0.007 | N 0.047 | H -0.043 | P -0.008 | R 0.04 | V 0.058 | K 0.058 | G -0.023 | Q 0.075 | I -0.003 | M 0.012 | S 0.038 | L -0.025
A22: R -0.031 | F -0.12 | W -0.209 | P -0.948 | C -0.032 | V -0.048 | I -0.057 | K 0.057 | Q -0.044 | D -0.122 | T -0.055 | H -0.049 | G -0.118 | N -0.027 | S -0.04 | M -0.047 | L -0.052
E19: P -1.01 | I -0.699 | L -0.517 | V -0.379 | N -0.299 | K -0.324 | W -0.77 | S -0.26 | A -0.147 | F -0.784 | Q 0.007 | D -0.107 | C -0.382 | G -0.375 | Y -0.652 | R -0.438
S25: P -0.323 | A 0.032 | W -0.188 | L -0.083 | C -0.121 | I -0.315 | E -0.106 | T -0.126 | D -0.096 | F -0.104 | N -0.038 | G -0.039 | V -0.205 | M -0.1 | H -0.099 | Q -0.034 | K 0.004 | R 0.022 | Y -0.105
